Laboratory results reported in US20100209346A1.

Key:
Experiment in all cases: dot blot; antigen dilution series 100-0.01 pmol on nitrocellulose
[1] = biological target: Aβ(1-42) fibril preparation of example 27 (human)
[2] = biological target: Aβ(1-42) oligomer B preparation of example 6b (oligomers of human amyloid β(1-42) protein with apparent molecular weights of 38 kDa and 48 kDa) (human)
[3] = biological target: HFIP-treated Aβ(1-42) monomer of example 1a (human)

monoclonal antibody 6E10 (Signet) gave a detection limit (minimum amount of antigen visible) [1] of 1 pmol, a detection limit (minimum amount of antigen visible) [2] of 0.1 pmol and a detection limit (minimum amount of antigen visible) [3] of 0.1 pmol.
